Laboratory results: patent US10500274B2, “Methods for reducing viral load in HIV-1 infected patients” (CytoDyn Inc., priority 2008, dated 2019)
Where “and” joins values, the source holds several entries; their conditions need not be identical. Equal values may be shown once. Read-outs that look alike come from different tables or passages of the source.

Experiments:
[1] = human, in vivo; for Peak serum concentration (average) / mean time to last observation (tlast) / volume of distribution (average): iv
From the text: PK metrics were estimated using non-compartmental methods.

[2] = system: HIV-1 isolates of study subjects; experiment: PhenoSense HIV Entry assay on viruses of Phase 1b subjects; assay type: cell-based
Procedure: Plasma HIV-1 RNA levels were determined with the Cobas Amplicor HIV-1 Monitor Test (Version 1.5; Roche Diagnostics, Branchburg, N.J.). Samples <400 copies/mL were re-analyzed with the Ultrasensitive Monitor Method. Co-receptor tropism was determined at screening and Days 1, 8, 29 and 59 (Trofile™ assay, Monogram Biosciences, Inc., South San Francisco, Calif.). Viral susceptibility was determined on Days 1 and 59 with the Phenosense™ HIV Entry assay. […] Maximum percent inhibitions were determined from the plateaus of the inhibition curves. The reference virus was HIV-192HT594, a low-passage dual-tropic isolate. GeneSeq™ (Monogram Biosciences) was used to assess HIV-1 subtype and genotypic susceptibility to protease and reverse transcriptase inhibitors.

[3] = design: species or system human; conditions: in vivo, sc
From the text: (§1) Subjects were followed for a total of 58 days for safety and antiviral effects. Entry criteria included: HIV-1 RNA >5,000 copies/mL, R5 virus, […], no antiretroviral therapy <12 weeks.

[4] = system: CCR5 lymphocytes; experiment: Phase 1a clinical study: coating of CCR5 cells by PRO 140; assay type: in vivo, human; conditions: single IV 2 mg/kg
Procedure: Individuals were treated in sequential, dose-rising cohorts of 5 subjects (4 active and 1 placebo) each and evaluated for up to 120 days post-treatment. […] Safety assessments consisted of monitoring the following: vital signs (blood pressure, pulse, temperature, etc; hematology (hemoglobin, hematocrit, leukocytes, platelets, etc.); serum chemistries (AST/ALT, alkaline phosphatase, BUN, creatinine, etc.); urinalysis (pH, specific gravity, protein, glucose, leukocytes, etc.); and ECGs (12-lead).
Whole blood specimens were combined separately with the indicated phycoerythrin-labeled anti-CCR5 antibodies or with appropriate isotype-control antibodies. Erythocytes were lysed and leukocytes were stabilized using the ImmunoPrep Reagent System (Beckman Coulter), and the cells were analyzed on a TQ Prep™ flow cytometry workstation (Beckman Coulter). Data were expressed as the percent of CCR5 cells relative to all cells gated in the analysis.

[5] = system: CCR5+ and CD4+ lymphocytes; assay type: in vivo, human
Procedure: CCR5^+ and CD4^+ lymphocytes were measured by flow cytometry.

[6] = system: HIV-1JR-FL envelope-mediated membrane fusion; experiment: microbe, parasite or virus in culture; assay type: cell-based; conditions: inhibitor alone, experiment depicted in FIG. 15A; read-out: IC90
[7] = system: R5 HIV-1; experiment: Phase 2 trial of subcutaneous PRO 140: HIV-1 RNA; assay type: in vivo, human
Procedure: More particularly, dosing comprises 162 mg q1wx3, 324 mg q1wx3, 324 mg q2wx2. Subcutaneous PRO 140 offers a long-acting, self-administered therapy for HIV infection.
as §1

[8] = Phase 1b clinical study: safety, anti-PRO 140 antibodies, plasma RANTES
From the text: Subjects were ≥18 years of age with plasma HIV-1 RNA ≥5,000 copies/mL, R5-tropic HIV-1 only, CD4^+ cells ≥250/μL with no documented nadir ≤200/μL and no antiretroviral therapy for at least 3 months. Major exclusion criteria included pregnancy, history of AIDS-defining illness, the presence of X4-tropic HIV-1, and acute or symptomatic viral hepatitis within the prior 6 months.
Evaluations of clinical subjects included physical examinations, 12-lead electrocardiograms, vital signs, concomintant medications, and adverse events reporting. Clinical laboratory tests evaluated serum chemistries, hematology and urinalysis.
Samples below the LLOQ were assigned a value of zero. PK metrics were estimated using non-compartmental methods. The area under the serum concentration-time curve from time zero to infinity (AUC) was calculated using the linear trapezoidal rule. The terminal serum half-life was calculated by regression of the terminal portion of the concentration-time curve. […] Sera were tested at a 1:10 dilution initially, and positive samples were serially diluted for titer analysis.
CCR5^+ and CD4^+ lymphocytes were measured by flow cytometry. […] CTC5-PE data were used to determine the absolute number of circulating CCR5^+ lymphocytes pre- and post-treatment. RANTES was measured in platelet-depleted plasma using a validated ELISA.

B1: PRO 140: humanized IgG4,κ anti-CCR5 mAb, humanized version of the murine mAb PA14 (antibody, chains of the INN, looked up, V domains shown)
VH: EVQLVESGGGLVKPGGSLRLSCAASGYTFSNYWIGWVRQAPGKGLEWIGDIYPGGNYIRNNEKFKDKTTLSADTSKNTAYLQMNSLKTEDTAVYYCGSSFGSNYVFAWFTYWGQGTLVTVSS
VL: DIVMTQSPLSLPVTPGEPASISCRSSQRLLSSYGHTYLHWYLQKPGQSPQLLIYEVSNRFSGVPDRFSGSGSGTDFTLKISRVEAEDVGVYYCSQSTHVPLTFGQGTKVEIK
For B1, the “time of peak concentrations post-infusion” value [1] was 30 to 60 min, the “Peak serum concentration (average)” value ([1]; 0.5 mg/kg) was 13 µg/mL and the “mean time to last observation (tlast)” value ([1]; 0.5 mg/kg) was 6.1 days. The “volume of distribution (average)” value ([1]; 0.5 mg/kg) was 8.4 L, the “Peak serum concentration (average)” value ([1]; 2 mg/kg) was 61 µg/mL and the “mean time to last observation (tlast)” value ([1]; 2 mg/kg) was 18.2 days. For the same molecule, the “volume of distribution (average)” value ([1]; 2 mg/kg) was 13.8 L, the “Peak serum concentration (average)” value ([1]; 5 mg/kg) was 173 µg/mL and the “mean time to last observation (tlast)” value ([1]; 5 mg/kg) was 18.9 days. The “volume of distribution (average)” value ([1]; 5 mg/kg) was 7.1 L, the “change in viral susceptibility, baseline to day 59 (in words)” value ([2]; IC50 or Fold Change) was “No change from baseline to day 59” and the “Mean Maximum Percent Inhibition (MPI)” value ([2]; baseline) was 99% and 98.9±1.5%. For the same molecule, the “variation of baseline rIC50 values across the 39 subjects” value ([2]; baseline) was 6.2 fold, the “Mean rIC50 (IC50 test isolate / IC50 reference virus)” value ([2]; baseline, viruses of PRO 140-treated subjects) was 2.0 (range: 0.83-5.1) and the “Mean Maximum Percent Inhibition (MPI)” value ([2]; post-treatment (end of study)) was 99% and 99.0±1.0%. For the same molecule, the administration site reactions [3] was “mild in intensity and resolved within one to two days”, the “drug-related serious adverse events” value [3] was “no drug-related serious adverse events” and the tolerability [3] was “generally well tolerated compared to placebo”. For the same molecule, the “coating of CCR5 lymphocytes (in words)” value [4] was “effectively coats CCR5 lymphocytes without cellular depletion for two weeks”, the “duration of maximal masking or coating of CCR5” value ([5]; 0.5 mg/kg) was 1 week and the “average increase in CD4+ lymphocytes” value ([5]; 5 mg/kg, Day 8) was 129 cells/mm^3. For the same molecule, the “mean change in CD4+ cells over baseline” value ([5]; 5 mg/kg, Day 8) was “+129 cells/μL”, the “mean change in CD4+ cells over baseline” value ([5]; 5 mg/kg, Day 15) was “+96 cells/μL” and the “mean change in CD4+ cells over baseline” value ([5]; 5 mg/kg, Day 22) was “+83 cells/μL”. The “mean change in CD4+ cells over baseline” value ([5]; 5 mg/kg, Days 29 and 59) was “< +10 cells/μL”, the “change in CD4+ cells (in words)” value ([5]; 0.5 and 2 mg/kg groups) was “No significant change” and the “duration of maximal (high-level) coating of CCR5” value ([5]; 2 and 5 mg/kg (higher dose levels)) was 2 weeks. The “duration of significant (p<0.05) coating of CCR5+ lymphocytes” value ([5]; all PRO 140 treatment groups) was 2-4 weeks, the “depletion of CCR5+ cells” value ([5]; human, in vivo) was “no depletion of CCR5^+ cells” and the IC90 [6] was 111 nM. For the same molecule, the “mean reduction in viral load at day 22” value ([7]; SC 162 mg weekly) was 0.75 log 10, the “% subjects with ≥1 log10 drop” value ([7]; SC 162 mg, Days 1, 8, 15) was 55% and the “Max viral load reduction (mean)” value ([7]; SC 162 mg, Days 1, 8, 15) was 0.99 log10. The “Max viral load reduction: Range” value ([7]; SC 162 mg, Days 1, 8, 15) was −0.23 to −1.92 log10, the “Mean duration in days ≥1 log10 drop” value ([7]; SC 162 mg, Days 1, 8, 15) was 14 days and the “log10 change in HIV-1 RNA: Day 22 Mean” value ([7]; SC 162 mg, Days 1, 8, 15) was −0.75 log10. The “log10 change in HIV-1 RNA: Day 22 Median” value ([7]; SC 162 mg, Days 1, 8, 15) was −0.77; p = 0.0072 log10, the “maximum log10 change in HIV-1 RNA: Mean” value ([7]; SC 162 mg, Days 1, 8, 15) was −0.99 log10 and the “maximum log10 change in HIV-1 RNA: Median” value ([7]; SC 162 mg, Days 1, 8, 15) was −1.06; p = 0.0093 log10. The “mean reduction in viral load at day 22” value ([7]; SC 324 mg bi-weekly) was 1.20 log 10, the “mean reduction in viral load at day 22” value ([7]; SC 324 mg weekly) was 1.51 log 10 and the “% subjects with ≥1 log10 drop” value ([7]; SC 324 mg, Days 1, 8, 15) was 73%. For the same molecule, the “Max viral load reduction (mean)” value ([7]; SC 324 mg, Days 1, 8, 15) was 1.65 log10, the “Max viral load reduction: Range” value ([7]; SC 324 mg, Days 1, 8, 15) was −0.76 to −2.50 log10 and the “Mean duration in days ≥1 log10 drop” value ([7]; SC 324 mg, Days 1, 8, 15) was 20 days. For the same molecule, the “log10 change in HIV-1 RNA: Day 22 Mean” value ([7]; SC 324 mg, Days 1, 8, 15) was −1.51 log10, the “log10 change in HIV-1 RNA: Day 22 Median” value ([7]; SC 324 mg, Days 1, 8, 15) was −1.50; p < 0.0001 log10 and the “maximum log10 change in HIV-1 RNA: Mean” value ([7]; SC 324 mg, Days 1, 8, 15) was −1.65 log10. The “maximum log10 change in HIV-1 RNA: Median” value ([7]; SC 324 mg, Days 1, 8, 15) was −1.74; p < 0.0001 log10, the “% subjects with ≥1 log10 drop” value ([7]; SC 324 mg, Days 1, 15) was 67% and the “Max viral load reduction (mean)” value ([7]; SC 324 mg, Days 1, 15) was 1.37 log10. The “Max viral load reduction: Range” value ([7]; SC 324 mg, Days 1, 15) was −0.35 to −3.53 log10, the “Mean duration in days ≥1 log10 drop” value ([7]; SC 324 mg, Days 1, 15) was 18 days and the “log10 change in HIV-1 RNA: Day 22 Mean” value ([7]; SC 324 mg, Days 1, 15) was −1.20 log10. For the same molecule, the “log10 change in HIV-1 RNA: Day 22 Median” value ([7]; SC 324 mg, Days 1, 15) was −1.03; p < 0.0001 log10, the “maximum log10 change in HIV-1 RNA: Mean” value ([7]; SC 324 mg, Days 1, 15) was −1.37 log10 and the “maximum log10 change in HIV-1 RNA: Median” value ([7]; SC 324 mg, Days 1, 15) was −1.16; p = 0.0001 log10. For the same molecule, the “continuation of suppression following the last dose” value ([7]; SC 324 mg, days 1, 8 and 15) was 7 days, the “serious adverse events / dose-limiting toxicity” value ([8]; human, in vivo) was “No drug-related serious adverse events or dose-limiting toxicity was reported” and the “effect on QTc intervals / electrocardiogram” value ([8]; single IV 0.5, 2 and 5 mg/kg) was “no clinically relevant drug-related effect on QTc intervals”.
